The results in this text go back to patent publication US20160090422A1 (Genentech, published 2016).

Assay [1] addresses T1, rhesus monkey CRTh2 (rhesus monkey, UniProt Q9Y5Y4 1-395 (human entry)).
T1 construct: also native on primary rhesus basophils and eosinophils; also called rhesus CRTh2
T1 chain: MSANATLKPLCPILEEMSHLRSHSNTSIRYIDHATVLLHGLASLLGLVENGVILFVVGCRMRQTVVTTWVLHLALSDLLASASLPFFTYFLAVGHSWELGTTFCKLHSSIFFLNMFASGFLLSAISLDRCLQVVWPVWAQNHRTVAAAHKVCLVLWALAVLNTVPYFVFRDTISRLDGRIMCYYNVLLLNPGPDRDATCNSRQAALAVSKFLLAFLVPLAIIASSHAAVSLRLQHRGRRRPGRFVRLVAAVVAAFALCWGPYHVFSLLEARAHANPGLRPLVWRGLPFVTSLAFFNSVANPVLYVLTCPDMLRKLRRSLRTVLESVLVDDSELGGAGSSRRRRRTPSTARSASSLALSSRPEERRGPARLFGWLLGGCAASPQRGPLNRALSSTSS
Nature of the assay: flow cytometry, 293 cells expressing amino-terminal gD-tagged rhesus CRTh2; antibody at 10, 1 and 0.1 ug/ml. For orientation: A flow cytometer gives signals particle by particle.

The target in assay [2] is T2, human CRTh2 (human, UniProt Q9Y5Y4 1-395).
T2 construct: also native CRTh2 on primary human basophils, eosinophils and Th2 cells; also called hCRTh2; chemoattractant receptor-homologous molecule expressed on T helper 2 cells
T2 sequence: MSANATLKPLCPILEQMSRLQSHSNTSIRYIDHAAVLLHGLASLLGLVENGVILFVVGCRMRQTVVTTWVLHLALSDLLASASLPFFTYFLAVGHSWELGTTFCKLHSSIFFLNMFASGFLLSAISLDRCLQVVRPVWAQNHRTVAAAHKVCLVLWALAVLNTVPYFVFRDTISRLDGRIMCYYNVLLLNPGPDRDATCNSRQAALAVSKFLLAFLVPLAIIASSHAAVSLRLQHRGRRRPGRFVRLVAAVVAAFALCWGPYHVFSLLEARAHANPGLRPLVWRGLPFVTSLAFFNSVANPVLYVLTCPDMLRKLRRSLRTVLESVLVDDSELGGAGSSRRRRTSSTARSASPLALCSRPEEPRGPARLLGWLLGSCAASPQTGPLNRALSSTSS
Nature of the assay: radioligand cell binding assay (Scatchard), Fab, 293 cells expressing human CRTh2. The method, then: (§1) The equilibrium dissociation constants (KD) for anti-CRTH2 antibodies binding to cells expressing recombinant CRTh2 receptor were determined using a radioligand cell binding assay. […] The cells expressing the CRTh2 receptor were incubated for 2 hours at room temperature with a fixed concentration of iodinated anti-CRTh2 antibody combined with increasing concentrations of unlabeled anti-CRTh2 antibody and including a zero-added, buffer only sample. After the 2-hour incubation, the competition reactions were transferred to a Millipore Multiscreen filter plate and washed 4 times with binding buffer to separate the free from bound iodinated antibody. The filters were counted on a Wallac Wizard 1470 gamma counter. The binding data was evaluated using NewLigand software (Genentech), which uses the fitting algorithm of Munson and Rodbard to determine the binding affinity of the anti-CRTh2 antibody (Munson and Rodbard, Anal. Biochem, 1980; 107: 220-239).
(§2) To obtain a direct measurement of the KD value of humanized antibodies h19A2.v12 and h19A2.v60, Fab fragments of these antibodies were generated and subjected to radioligand cell binding assays (FIG. 4B).

Assay [3] deals with T3, cynomolgus monkey CRTh2 (cynomolgus monkey, UniProt Q9Y5Y4 1-395 (human entry)).
T3 construct: also native on primary cyno basophils and eosinophils; also called cyno CRTh2; cynomologous CRTh2
T3 chain: T1 chain with P193S, P276R, R360H
Briefly: radioligand cell binding assay (Scatchard), Fab, 293 cells expressing cynomolgus monkey CRTh2. As for the experimental part: After the 2-hour incubation, the competition reactions were transferred to a Millipore Multiscreen filter plate and washed 4 times with binding buffer to separate the free from bound iodinated antibody. The filters were counted on a Wallac Wizard 1470 gamma counter. The binding data was evaluated using NewLigand software (Genentech), which uses the fitting algorithm of Munson and Rodbard to determine the binding affinity of the anti-CRTh2 antibody (Munson and Rodbard, Anal. Biochem, 1980; 107: 220-239).
as §2
(§3) Radiolabeled ligand analysis with homologous competition was performed to assess the dissociation constant (KD) of anti-CRTh2 antibodies to surface expressed human and cynomolgus monkey CRTh2 on 293 cells. To obtain a direct measurement of the KD value of humanized antibodies h19A2.v52 and h19A2.v46, Fab fragments of these antibodies were generated (FIG. 16).

Assay [4] addresses T3, cynomolgus monkey CRTh2. Nature of the assay: ratio of Scatchard KD values, cyno against human CRTh2 on 293 cells. As for the experimental part: The filters were counted on a Wallac Wizard 1470 gamma counter. The binding data was evaluated using NewLigand software (Genentech), which uses the fitting algorithm of Munson and Rodbard to determine the binding affinity of the anti-CRTh2 antibody (Munson and Rodbard, Anal. Biochem, 1980; 107: 220-239).
as §2, §3

For assay [5], the target named is T1, rhesus monkey CRTh2. Nature of the assay: flow cytometry, 293 cells expressing rhesus CRTh2; antibody at 0.55, 0.18, 0.06, 0.02 and 0.006 ug/ml [Cont.].
Assay [6] concerns the target T2, human CRTh2. Briefly: flow cytometry, 293 cells expressing amino-terminal gD-tagged human CRTh2; antibody at 10, 1 and 0.1 ug/ml.
Assay [7] concerns the target T3, cynomolgus monkey CRTh2. Briefly: flow cytometry, 293 cells expressing cynomolgus CRTh2 [Cont.].
The target in assay [8] is T2, human CRTh2. Briefly: flow cytometry on basophils and eosinophils of human PBMC; antibody at 5 and 0.5 ug/ml, labelled anti-mouse IgG [Cont.].
Assay [9] concerns the target T1, rhesus monkey CRTh2. Briefly: flow cytometry, 293 cells expressing rhesus CRTh2 [Cont.].
The target in assay [10] is T2, human CRTh2. Briefly: radioligand cell binding assay with homologous competition (Scatchard), 293 cells expressing human CRTh2. As for the experimental part: as §1, §2
Assay [11] addresses T2, human CRTh2. Nature of the assay: radioligand cell binding assay with homologous competition (Scatchard), 300.19 cells expressing human CRTh2. The method, then:
as §1, §2

Changes are numbered by the printed parent chain.

B1: humanized and engineered anti-CRTh2 antibody hu19A2.v12 (antibody, human IgG1, kappa, V domains shown)
VH: EVQLVESGGGLVQPGGSLRLSCAASGFTFSSYSMSWVRQAPGKGLEWVAYISNGGSTTDYPGTVEGRFTISRDNSKNTLYLQMNSLRAEDTAVYYCARHRTNWDFDYWGQGTLVTVSS
VL: DIQMTQSPSSLSASVGDRVTITCRASENIYWNLAWYQQKPGKAPKLVVYAATQLADGVPSRFSGSGSGTDYTLTISSLQPEDFATYYCQHFWITPWTFGQGTKVEIKR
notes: Human IgG1; whole antibody as used in flow cytometry; also called h19A2.v12
Turning to B1, the binding result with rhesus monkey CRTh2 [1] is “binds”.

B2: h19A2.v46 Fab fragment (Fab, V domains shown)
VH: B1 VH with S33L, Y50R
VL: DIQMTQSPSSLSASVGDRVTITCRASENIYWNLAWYQQKPGKAPKLVVYAATQLADGVPSRFSGSGSGTDYTLTISSLQPEDFATYYCQHFWITPWTFGQGTKVEIK
notes: Fab fragment of the humanized IgG; also called h19A2.v46 (Fab fragment of IgG)
On to B2, for which the Kd with human CRTh2 [2] was 0.0064 µM; in the assay with cynomolgus monkey CRTh2 [3] it was 0.0086 µM.

B3: h19A2.v60 Fab fragment (Fab, V domains shown)
VH: B1 VH with S33L, Y50R
VL: B2 VL with W31Y, V47L, V48I, D56E
notes: Fab fragment of the humanized IgG; also called h19A2.v60 (Fab fragment of IgG)
As for B3, the dissociation constant Kd with human CRTh2 [2] was 0.056 µM; in the assay with cynomolgus monkey CRTh2 [3] it was 0.039 µM.

B4: h19A2.v52 Fab fragment (Fab, V domains shown)
VH: B1 VH with S33L, Y50R
VL: B2 VL with W31Y
notes: Fab fragment of the humanized IgG; also called h19A2.v52 (Fab fragment of IgG); h19A2.52
In the case of B4, the “relative binding affinity for human versus cynomolgus CRTh2” value with cynomolgus monkey CRTh2 [4] was at most 2 fold. For the same molecule, the Kd with human CRTh2 [2] turned out to be 0.0137 µM; with cynomolgus monkey CRTh2 [3] it was 0.0213 µM.

B5: humanized affinity matured anti-CRTh2 antibody hu19A2.v52 (antibody, human IgG1, kappa, V domains shown)
VH: B1 VH with S33L, Y50R
VL: B1 VL with W31Y
notes: Human IgG1; whole antibody as used in flow cytometry and the cAMP assay; also called h19A2.v52; h19A2.52
On to B5, for which the binding result with rhesus monkey CRTh2 [5] is recorded as “binds”.

B6: h19A2.v12 Fab fragment (Fab, V domains shown)
VH: B1 VH
VL: B2 VL
notes: Fab fragment of the humanized IgG, 125I-labelled in the radioligand assay; also called h19A2.v12 (Fab fragment of IgG); h19A2.12
Consider B6, for which the “relative binding affinity for human versus cyno CRTh2” value with cynomolgus monkey CRTh2 [4] was at most 3 fold. Moreover, the Kd with human CRTh2 [2] was determined as 0.051 µM; in the assay with cynomolgus monkey CRTh2 [3], 0.152 µM.

B7: humanized anti-CRTh2 antibody hu19A2.v1 (antibody, human IgG1, kappa, V domains shown)
VH: B1 VH with D59Y
VL: B1 VL with W31S
notes: also called h19A2.v1
As for B7, in the assay with human CRTh2 [6], the binding result is “binds”.

B8: humanized affinity matured anti-CRTh2 antibody hu19A2.v46 (antibody, human IgG1, kappa, V domains shown)
VH: B1 VH with S33L, Y50R
VL: B1 VL
notes: Human IgG1; whole antibody as used in flow cytometry; also called h19A2.v46
For B8, in the assay with rhesus monkey CRTh2 [5], the binding result is “binds”.

B9: murine anti-CRTh2 antibody 3C12 (antibody, mouse IgG2a, V domains shown)
VH: QVQLQQSGADLVRPGTSVKVSCKASGYAFTNYLIDWVKQRPGQGLEWIGAIHPGSGRTHYNEKFKGKATLTADKSSSAAYMQISSLTSDDSAVFFCARSGGSSFDYYAMDYWGQGTSVTVSS
VL: DIQMTQSPSSLSASLGERVSLTCRASQEIGGYLSWLQQKPDGTFKRLIYAASTLDSGVPKRFSGSRSGSDYSLTISSLESEDFADYYCLQYANYPYTFGGGTKLEIK
notes: Mouse monoclonal (hybridoma antibody; heavy chain also recloned with mouse IgG2a Fc); also called mu3C12
Consider B9, for which the binding result with cynomolgus monkey CRTh2 [7] was “no binding (tested: 20 ug/ml)”; with human CRTh2 [8] it was “binds”; with rhesus monkey CRTh2 [9] it was “no binding (tested: 20 ug/ml)”.

B10: murine anti-CRTh2 antibody 8B1 (antibody, V domains shown)
VH: QVQLQQSGTGLVRPGTSVRVSCKASGYAFITYLIEWIKQRPGQGLEWIGVIHPGSGNSHYNEKFKGKATLTADTSSSTAYMQLSSLTSGDSAVYFCARSGSSSFDYYAMDFWGQGTSVTVSS
VL: B9 VL with G30S, L33F, F44I
notes: Mouse monoclonal, hybridoma antibody or recloned with mouse IgG2a Fc; whole IgG in the Scatchard assay; also called mu8B1; Mab 8B1
B10: the Kd in the assay with human CRTh2 [10] was determined as 0.0026 µM.

B11: murine anti-CRTh2 antibody 31A5 (antibody, mouse IgG2a, V domains shown)
VH: QVQLKESGPGLVAPSQSLSITCTVSGFSLTGYGVNWVRQPPGKGLEWLGMIWDDGTTDFDSALRSRLSISKDNSKSQVFLKMNSLQTDDTARYFCARGDYGYAMDYWGQGTSVTVSS
VL: DIQMTQSPASLSVSVGETVTITCRASVNIYSNLAWYQQRQGKSPQLLVYAATNLAEGVPSRFSGSGSGTQYSLKINSLQSEDFGSYYCQHFWVTPYTFGGGTKLEIK
notes: Mouse monoclonal (hybridoma antibody; heavy chain also recloned with mouse IgG2a Fc); also called mu31A5
In the case of B11, the binding result in the assay with cynomolgus monkey CRTh2 [7] and with rhesus monkey CRTh2 [9] was “no binding (tested: 20 ug/ml)” each time.

B12: murine anti-CRTh2 antibody 19A2 (antibody, V domains shown)
VH: EVKLVESGGGLVQPGGSLKLSCAASGFTFSSYSMSWVRQTPEKRLEWVAYISNGGSTTYYPGTVEGRFTISRDNAKNTLFLQMSSLRSKDTAMYYCARHRTNWDFDYWGQGTTLTVSS
VL: B11 VL with V27E, R39K, L47V, N53Q, E56D, V93I, Y96W
notes: whole IgG in the Scatchard assay; also called mu19A2; Mab 19A2
As to B12, the Kd in the assay with human CRTh2 [10] was determined as 0.002 µM; with human CRTh2 [11], 0.0102 µM.

The Kd is the concentration at which binding is half-saturated.
